# Test results from article doi:10.1101/2025.07.11.664294 (2025).
# Bridges are numbered along the chain shown (N, C = ends).
# B1: P78 (Ctx fragment) 27-34 (peptide)
# chain: Ac-KCYGPQCL-NH2
# modifications: disulfide 2-7
# SMILES: CC(=O)N[C@@H](CCCCN)C(=O)N[C@H]1CSSC[C@@H](C(=O)N[C@@H](CC(C)C)C(N)=O)NC(=O)[C@H](CCC(N)=O)NC(=O)[C@@H]2CCCN2C(=O)CNC(=O)[C@H](Cc2ccc(O)cc2)NC1=O
# Target: Neuropilin-1 (NRP-1) 22-644 (Homo sapiens, UniProt O14786)
# Assay: SPR
# Sequence of Neuropilin-1 (NRP-1) 22-644 (O14786 22-644): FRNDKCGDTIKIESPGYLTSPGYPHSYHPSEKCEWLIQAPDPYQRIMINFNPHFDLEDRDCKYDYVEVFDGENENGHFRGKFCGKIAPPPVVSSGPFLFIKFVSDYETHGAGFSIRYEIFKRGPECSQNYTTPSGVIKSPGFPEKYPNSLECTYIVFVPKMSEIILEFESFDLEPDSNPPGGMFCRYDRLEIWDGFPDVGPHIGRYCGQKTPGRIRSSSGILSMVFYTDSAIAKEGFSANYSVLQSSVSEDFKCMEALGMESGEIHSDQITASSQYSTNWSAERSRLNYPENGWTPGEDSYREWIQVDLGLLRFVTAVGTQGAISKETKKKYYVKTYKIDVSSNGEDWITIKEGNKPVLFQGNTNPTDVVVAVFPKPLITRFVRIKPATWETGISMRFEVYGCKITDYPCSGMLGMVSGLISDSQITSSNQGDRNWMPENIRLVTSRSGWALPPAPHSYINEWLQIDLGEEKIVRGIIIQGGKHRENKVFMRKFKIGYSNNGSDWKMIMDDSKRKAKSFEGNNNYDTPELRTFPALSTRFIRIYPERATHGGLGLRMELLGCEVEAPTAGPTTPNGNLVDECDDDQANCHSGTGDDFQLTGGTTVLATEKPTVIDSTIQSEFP
binder,measurement,value
B1,Kd,267 µM
